Measurements taken from paper PMC4138198.

Key:
[1] = target: Pmr-R8A (plasmid pCAR1 (isolated originally from P. resinovorans CA10)); assay: SEC; 1 ml of purified protein at 140 uM on HiLoad 16/60 Superdex 200 prep grade in buffer B (20 mM Tris-HCl pH 7.5, 4°C, 0.5 M NaCl, 10% glycerol, 0.5 M imidazole); fractions checked by Tricine-SDS-PAGE and anti-His Western blot
[2] = target: Pmr (plasmid pCAR1 (isolated originally from P. resinovorans CA10)); assay: as above
TurA (P. putida KT2440) = assay: SPR; Biacore 2000, biotinylated Pmr, TurA or TurB (about 500 RU) immobilised on streptavidin chip SA, Pmr as analyte at lower concentrations; 4°C, 20 mM Tris-HCl pH 7.5, 0.5 M NaCl, 5% glycerol, 475 mM imidazole, 30 ul/min; Req divided by the immobilised amount
[3] = target: Pmr (plasmid pCAR1 (isolated originally from P. resinovorans CA10)); assay: as above

stoichiometry N [1] | stoichiometry N [2] | binding amount of APmr per ligand homodimer, relative to LTurB-APmr (TurA (P. putida KT2440)) | binding amount of APmr per ligand homodimer, relative to LTurB-APmr [3] | Substance
6 -mer | – | – | – | Pmr-R8A (natural protein)
– | 35 -mer | 2 fold | 2 fold | Pmr (natural protein)
